Experimental data published in patent US20250368752A1 (AMPSOURCE BIOPHARMA SHANGHAI, published 2025).

T1: human TFPI protein (human, UniProt P10646 29-282, limits assumed)
T1 construct: Soluble human TFPI, coated on ELISA plates (6.1) and used in solution in the FXa and TF/FVIIa/FX assays (6.2, 6.3)
T1 sequence (looked up): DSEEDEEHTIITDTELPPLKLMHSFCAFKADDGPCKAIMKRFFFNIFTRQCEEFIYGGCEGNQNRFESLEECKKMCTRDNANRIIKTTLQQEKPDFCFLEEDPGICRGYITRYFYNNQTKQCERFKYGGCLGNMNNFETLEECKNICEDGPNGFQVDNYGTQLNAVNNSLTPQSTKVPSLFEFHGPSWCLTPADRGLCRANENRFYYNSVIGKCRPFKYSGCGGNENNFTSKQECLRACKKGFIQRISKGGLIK

T2: human TFPI with a His tag (human, UniProt P10646 29-282, limits assumed)
T2 construct: Coupled to Ni-NTA sensors at 10 ug/mL for BLI; not shown: His tag
T2 sequence (looked up): T1 sequence (looked up)

B1: humanized anti-human TFPI antibody AB8D (antibody, V domains shown)
VH: EVQLVQSGAELKKPGASVKLSCKASGYTFTSYWMHWVRQTPGQGLEWIGEIKPDQGRINYNEKFKTRATLTADKSTSTAYMELSSLRSEDTAVYYCARSSVVDVAMDYWGQGTTVTVSS
VL: EIVLTQSPATLSLSPGERATLSCSASSSVSSSYLYWYQQKPGQAPRLWISGTSILASGVPARFSGSGSGTKYTLTISSLEPEDFAVYFCHQWSHYPFTFGQGTKLEIK
notes: Full-length humanized IgG of about 145 kD, expressed in CHO cells
B2: mouse monoclonal antibody against human TFPI, mAb3-71 (antibody, V domains shown)
VH: QVQLQQPEAELMKPGASVKLSCKASGYTFTSYWMHWVKQRPGQGLEWIGEIKPDNGRINYNEKFKTKATLAVDKSSSTAYMQLNSLTSGDSAVYYCARSSVVDVAMDYWGQGTSVSVSS
VL: QIVLTQSPAIMSASPGEKVTLTCSASSSVSSSYLYWYQQKPGSSPKLWISGTSILASGVPARFSGSGSGTSYSLTISSMEAEDTASYFCHQWSHYPFTFGSGTKLEIK
notes: also called hybridoma cell line #3-71

Legend:
[1] = biological target: TFPI expressed on HUVECs (human) (UniProt P10646); assay: cell-based or functional assay
[2] = biological target: TFPI expressed on HUVECs (human) (UniProt P10646); assay: flow cytometry on HUVEC cells, AF647 goat anti-human IgG detection
[3] = biological target: T1, human TFPI protein; assay: ELISA, human TFPI coated at 0.1 ug/mL, HRP goat anti-human IgG detection
Procedure: Human TFPI was coated onto the ELISA plate at a concentration of 0.1 μg/mL, with 100 μL per well, and incubated overnight at 4° C. The coating solution was then discarded, and the wells were blocked with 200 μL of PBS solution containing 1% BSA (PBSB) per well at 37° C. for 1 hour. The plate was washed with PBS solution containing 0.05% Tween-20 (PBST). A series of diluted concentrations of AB8D were added, with 100 μL per well, and incubated for 1 hour at 37° C. The plates were washed with PBST, and then HRP-labeled goat anti-human IgG (H+L) (Jackson Laboratory) was added as the detection antibody, with incubation for 1 hour at 37° C. After washing three times with 0.05% PBST, TMB was added, with 100 μL per well, and the color was developed at room temperature for 5 minutes. The reaction was terminated by adding 0.2 M H₂SO₄, with 50 μL per well. The absorbance values were read at dual wavelengths of 450/620 nm using a microplate reader. Using OD450 nm-OD620 nm as the Y-axis and antibody concentration as the X-axis, the data were analyzed using GraphPad Prism 6 software with a four-parameter logistic curve fitting to calculate the EC₅₀ value.

[4] = biological target: T2, human TFPI with a His tag; assay: BLI (ForteBio Octet), His-tagged human TFPI on Ni-NTA sensors, antibody 3.125-100 nM
Procedure: The binding affinity constant of the purified mouse monoclonal antibody against human TFPI (mAb3-71) to human TFPI was determined using biolayer interferometry (BLI) with the ForteBio Octet RED&QK system from PALL Corporation. The concentration gradient for multi-channel parallel quantitative analysis was set to 3.125, 6.25, 12.5, 25, 50, and 100 nM, and human TFPI with a His tag at 10 μg/mL was coupled to Ni-NTA sensors.

Row | Binder | neutralization of TFPI on HUVEC cells (FVIIa/FX added, S-2765, OD405 nm) [1] [ng/mL] | EC50 [2] [µg/mL] | EC50 [3] [µg/mL] | Kd [4] [pM] | koff [4] [s⁻¹] | kon [4] [M⁻¹ s⁻¹]
1 | B1 | 117 | 0.0286 | 0.00165 |  |  | 
2 | B2 |  |  |  | 4.54 | 1.31e-06 | 289000
